Results: article PMC5828360, “Identification and characterization of highly versatile peptide-vectors that bind non-competitively to the low-density lipoprotein receptor for in vivo targeting and delivery of small molecules and protein cargos” (PLoS ONE, 2018)

Biological target: human LDLR, endogenous on HUVEC (human (endogenous in HUVEC)) (UniProt P01130)
Experiment: flow cytometry on cells; 1.10^10 phage on 1.10^6 HUVEC, 20 min on ice, without or with LDL at 0.5 mg/mL; anti-M13 (anti-PVIII) and anti-hLDLR antibodies; signal in zone Q2

Chain of human LDLR, endogenous on HUVEC (human (endogenous in HUVEC)) (P01130 22-860): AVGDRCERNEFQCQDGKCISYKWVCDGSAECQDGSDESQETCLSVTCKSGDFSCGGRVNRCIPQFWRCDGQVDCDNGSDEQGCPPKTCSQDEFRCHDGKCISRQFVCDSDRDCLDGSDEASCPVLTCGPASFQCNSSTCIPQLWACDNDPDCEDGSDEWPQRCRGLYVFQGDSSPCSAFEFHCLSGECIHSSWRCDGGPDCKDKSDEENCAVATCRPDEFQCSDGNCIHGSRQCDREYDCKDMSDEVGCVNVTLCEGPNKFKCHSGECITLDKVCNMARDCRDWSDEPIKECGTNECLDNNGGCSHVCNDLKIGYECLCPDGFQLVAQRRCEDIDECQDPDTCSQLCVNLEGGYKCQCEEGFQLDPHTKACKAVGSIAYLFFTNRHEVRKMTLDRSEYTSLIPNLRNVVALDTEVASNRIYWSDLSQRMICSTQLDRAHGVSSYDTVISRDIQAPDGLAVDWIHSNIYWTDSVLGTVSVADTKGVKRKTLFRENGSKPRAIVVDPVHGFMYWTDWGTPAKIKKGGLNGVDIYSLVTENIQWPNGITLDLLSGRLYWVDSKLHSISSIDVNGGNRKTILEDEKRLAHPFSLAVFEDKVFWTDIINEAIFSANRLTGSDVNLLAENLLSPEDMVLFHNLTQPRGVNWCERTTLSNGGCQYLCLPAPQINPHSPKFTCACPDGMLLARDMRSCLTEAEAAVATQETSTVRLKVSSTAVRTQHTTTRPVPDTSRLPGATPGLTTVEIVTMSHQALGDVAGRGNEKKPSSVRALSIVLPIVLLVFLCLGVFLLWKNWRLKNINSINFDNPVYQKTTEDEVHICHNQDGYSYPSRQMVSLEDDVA

percent reduction of the VH549 phage signal (Q2) with LDL at 0.5 mg/mL: 56%
Substance: low-density lipoprotein (LDL), P04114 28-4563
